Experimental findings from patent publication US20040248202A1, “Bacteriorhodopsin/G protein-coupled receptor chimeras” (Wisconsin Alumni Research Foundation, priority 1998, published 2004) are described below.

The assay addresses transducin (Homo sapiens, UniProt P11488). In words: GTPyS uptake assay: effect of BR-rhodopsin loop 3 chimeras on GDP-GTP exchange on transducin. In kind it is biochemical. The method, then:
The ability of the chimeric protein to promote GTP-GDP exchange was evaluated for each of three BR-rhodopsin loop 3 chimeras by evaluating the effect of the chimera on the rate of GDP-GTP exchange on transducin using a GTPyS uptake assay, as described below.
Chimeric or bacteriorhodopsin protein (1.7 uM) was incubated with 0.8 uM holotransducin with 10 nM ^35S radiolabeled GTPyS in buffer (20 mM Hepes (pH 7.5), 5 mM MgCl2, 1 mM DTT, 0.1 mM EDTA, and 20 mM NaCl). The reaction was incubated at 30° C. for 5, 10, 15 or 30 minutes. The reaction was terminated by transferring aliquots of the reaction mixture to nitrocellulose filters (0.45 um) prewetted with wash buffer (10 mM Tris (pH 7.5), 5 mM MgCl2, 100 mM NaC1, 0.1 mM EDTA) and placed on a vacuum manifold. The filters were then washed with 8 ml of wash buffer. The filters were then placed overnight in scintillation vials filled with 20 ml of scintillation cocktail. The activity of the vials was counted by a Liquid Scintillation Counter. For the BR-Rhodopsin loop 3 chimeras, in which the rhodopsin intracellular loop 3 replaced the native BR intracellular loop 3 and was fused from T157 on BR TM 5 to V167 on BR TM 6, activity was determined by an increased uptake of GTPS over basal exchange by transducin alone.
A time course study was next performed for Rhodopsin Insert Y223 to M253 (3C)
The following experiments repeated the study of GTPγS exchange with a new culture of the BR-Rhodopsin chimera for Rhodopsin Insert Y223 (3C) as well as three new chimeras.

The mark [1] stands for this setting: 10 Minutes, new culture of 3C and three new chimeras.

Sequence of transducin (P11488 2-350 limits assumed): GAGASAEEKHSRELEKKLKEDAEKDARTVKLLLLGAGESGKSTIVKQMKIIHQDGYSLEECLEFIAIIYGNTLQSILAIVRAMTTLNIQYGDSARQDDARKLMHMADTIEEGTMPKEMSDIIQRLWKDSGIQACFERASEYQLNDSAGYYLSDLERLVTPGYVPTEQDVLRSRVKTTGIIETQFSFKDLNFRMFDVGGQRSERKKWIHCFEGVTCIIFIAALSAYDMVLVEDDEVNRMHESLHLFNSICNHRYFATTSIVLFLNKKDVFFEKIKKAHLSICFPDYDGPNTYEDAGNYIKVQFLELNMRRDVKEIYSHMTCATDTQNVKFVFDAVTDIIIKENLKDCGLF
Sequence of transducin (P62873 2-340 partner limits assumed): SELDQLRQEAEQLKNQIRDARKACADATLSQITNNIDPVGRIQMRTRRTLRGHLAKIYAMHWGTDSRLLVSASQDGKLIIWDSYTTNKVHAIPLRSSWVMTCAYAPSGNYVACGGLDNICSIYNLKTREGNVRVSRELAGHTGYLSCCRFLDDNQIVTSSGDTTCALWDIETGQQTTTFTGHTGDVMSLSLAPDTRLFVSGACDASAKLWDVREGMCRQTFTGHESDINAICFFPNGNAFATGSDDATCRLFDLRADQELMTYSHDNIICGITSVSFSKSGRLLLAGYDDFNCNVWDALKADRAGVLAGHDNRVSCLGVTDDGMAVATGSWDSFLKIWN
Sequence of transducin (P63211 2-71 partner limits assumed): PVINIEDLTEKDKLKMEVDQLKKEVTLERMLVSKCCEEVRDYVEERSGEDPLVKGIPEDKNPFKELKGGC

B1: 3B: bacteriorhodopsin chimera, loop 3 replaced by bovine rhodopsin Y223-T251; loop amino acid sequence SEQ ID NO:28 (protein)
chain: QAQITGRPEWIWLALGTALMGLGTLYFLVKGMGVSDPDAKKFYAITTLVPAIAFTMYLSMLLGYGLTMVPFGGEQNPIYWARYADWLFTTPLLLLDLALLVDADQGTILALVGADGIMIGTGLVGALTKVYSYRFVWWAISTAAMLYILYVLFFGFTYGQLVFTVKEAAAQQQESATTQKAEKEVTVASTFKVLRNVTVVLWSAYPVVWLIGSEGAGIVPLNIETLLFMVLDVSAKVGFGLILLRSRAIFGEAEAPEPSAGDGAAATSD
Turning to B1, the “Activation (×100%) Over Basal Exchange” value under setting [1] is on record as 1.17 ×100%.

B2: 3E: bacteriorhodopsin chimera, loop 3 replaced by bovine rhodopsin G224-M253; loop amino acid sequence SEQ ID NO:34 (protein)
chain: QAQITGRPEWIWLALGTALMGLGTLYFLVKGMGVSDPDAKKFYAITTLVPAIAFTMYLSMLLGYGLTMVPFGGEQNPIYWARYADWLFTTPLLLLDLALLVDADQGTILALVGADGIMIGTGLVGALTKVYSYRFVWWAISTAAMLYILYVLFFGFTGQLVFTVKEAAAQQQESATTQKAEKEVTRMVASTFKVLRNVTVVLWSAYPVVWLIGSEGAGIVPLNIETLLFMVLDVSAKVGFGLILLRSRAIFGEAEAPEPSAGDGAAATSD
Consider B2, for which, under setting [1], the “Activation (×100%) Over Basal Exchange” value is 1.46 ×100%.

B3: 3D: bacteriorhodopsin chimera, loop 3 replaced by bovine rhodopsin Q225-T251; loop amino acid sequence SEQ ID NO:32 (protein)
chain: QAQITGRPEWIWLALGTALMGLGTLYFLVKGMGVSDPDAKKFYAITTLVPAIAFTMYLSMLLGYGLTMVPFGGEQNPIYWARYADWLFTTPLLLLDLALLVDADQGTILALVGADGIMIGTGLVGALTKVYSYRFVWWAISTAAMLYILYVLFFGFTQLVFTVKEAAAQQQESATTQKAEKEVTVASTFKVLRNVTVVLWSAYPVVWLIGSEGAGIVPLNIETLLFMVLDVSAKVGFGLILLRSRAIFGEAEAPEPSAGDGAAATSD
Take B3: the “Activation (×100%) Over Basal Exchange” value under setting [1] is listed as 1.0 ×100%.

B4: 3C: bacteriorhodopsin chimera, loop 3 replaced by bovine rhodopsin Y223-M253; loop amino acid sequence SEQ ID NO:30 (protein)
chain: QAQITGRPEWIWLALGTALMGLGTLYFLVKGMGVSDPDAKKFYAITTLVPAIAFTMYLSMLLGYGLTMVPFGGEQNPIYWARYADWLFTTPLLLLDLALLVDADQGTILALVGADGIMIGTGLVGALTKVYSYRFVWWAISTAAMLYILYVLFFGFTYGQLVFTVKEAAAQQQESATTQKAEKEVTRMVASTFKVLRNVTVVLWSAYPVVWLIGSEGAGIVPLNIETLLFMVLDVSAKVGFGLILLRSRAIFGEAEAPEPSAGDGAAATSD
For B4, the “Activation (3C) (×10°) over Basal Exchange” value (100 μM GDP, 10 Minutes) amounted to 1.67 ×10°. Besides, the “Activation by 3C (×100%) Over Basal Exchange” value runs as follows: (5 Minutes) 1.56 ×100%; (10 Minutes) 1.95 ×100%; (15 Minutes) 1.97 ×100%. For the same molecule, the “Specific counts (Lattice Form)” value runs as follows: (10 Minutes, 100 uM GDP) 12577 counts; under setting [1], 77125 counts; (10 Minutes, no peptide (8 uM peptide experiment)) 51423 counts; (time course, 5 min) 26273 counts; (time course, 10 min) 51423 counts; (time course, 15 min) 66566 counts. Further, under setting [1], the “Activation (×100%) Over Basal Exchange” value is listed as 1.44 ×100%. The “SPECIFIC COUNTS: (Lattice Form)” value (10 Minutes, no peptide (50 uM peptide experiment)) was determined as 93448 counts.
